Experimental data reported in patent US20210188980A1.

Molecular target: cynomolgus LAG-3 ECD/Fc fusion protein (cynomolgus monkey)
Experiment: ELISA, coated cynoLAG-3 ECD/Fc

Sequence of cynomolgus LAG-3 ECD/Fc fusion protein (cynomolgus monkey) (chain, as listed by the source limits assumed, form in doubt): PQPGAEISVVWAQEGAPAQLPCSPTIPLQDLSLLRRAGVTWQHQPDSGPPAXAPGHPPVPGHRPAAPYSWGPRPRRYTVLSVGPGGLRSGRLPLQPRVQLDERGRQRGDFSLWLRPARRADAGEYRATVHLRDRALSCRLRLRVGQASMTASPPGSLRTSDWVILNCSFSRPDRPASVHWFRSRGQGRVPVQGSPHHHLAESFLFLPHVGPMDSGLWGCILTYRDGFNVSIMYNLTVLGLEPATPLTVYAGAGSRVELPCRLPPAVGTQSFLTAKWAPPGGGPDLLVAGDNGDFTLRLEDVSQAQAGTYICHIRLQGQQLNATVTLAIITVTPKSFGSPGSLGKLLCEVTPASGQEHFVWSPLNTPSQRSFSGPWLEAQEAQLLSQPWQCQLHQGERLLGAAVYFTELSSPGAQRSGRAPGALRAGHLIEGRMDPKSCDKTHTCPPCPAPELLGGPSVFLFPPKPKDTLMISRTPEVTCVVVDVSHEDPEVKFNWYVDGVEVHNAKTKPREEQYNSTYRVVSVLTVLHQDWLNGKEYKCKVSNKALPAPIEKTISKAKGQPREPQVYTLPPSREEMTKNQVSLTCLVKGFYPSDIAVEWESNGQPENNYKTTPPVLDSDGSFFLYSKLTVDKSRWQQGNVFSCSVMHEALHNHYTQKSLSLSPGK

Row | EC50 [nM] | Binder
1 | 0.32 | mAb750 (antibody, V domains shown) VH: EVQLQQSGAELVRPGASVKLSCTPSGLNIKDDYIHWVKQRPEQGLEWIGWIDPENGDTEYASKFQGKATITADTSSNTAYLQLSSLTSEDSAVYYCCTADYRNWYWGQGTTLTVSS VL: not shown
2 | 0.33 | mAb749 (antibody, V domains shown) VH: EVQLQQSGAELVRPGASVKVSCTASDFNIKDDYVHWVKQRPEQGLEWIGWIDPENGDTEYASKFQGKATITADTSSNTAYLQLSSLTSEDTAVYFCSTWDAEENYWGQGTTLSVSS VL: DIVLTQAAPSVPVTPGESVSISCRSSKSLLHSNGNTYLYWFLQRPGQSPQVLIYRMSNLASGVPVRFSGSGSGTAFTLRISRVEAEDVGVYYCMQHLEYPFTFGSGTKLEIK

The next lines start with the binder.

Row | Binder | EC50 [nM]
3 | mAb748 (antibody, V domains shown) VH: EVQMQQSGAELVRPGASVKLSCTVSGFNIKDDYMHWVKQRPEQGLEWIGWIDPENGDTEYASKFQGKATITADTSSNTAYLQLNSLTSEDTAVYYCTYFDYWGQGTTLTVSS VL: not shown | 0.25
4 | mAb746 (antibody, V domains shown) VH: EVQLQQSGAELVRPGASVKLSCTASDFNIKDDYMHWVKQRPEQGLDWIGWIVPENGNTEYASKFQGKATITADTSSNTAYLQLSSLTSEDTAVYYCTVYGDYWGQGTTLTVSS VL: DIQMTQSPSSLSASLGERVSLNCRASQEISGYLSWLQQKSDGTIKRLIYAASTLDSGVPKRFSGSRSGSDYSLTISSLESEDFADYYCLQYASYPLTFGAGTKLELK | 0.21
5 | mAb747 (antibody, V domains shown) VH: EVQLQQSGAELVRPGASVKLSCTASDFNIKDDYMHWVKQRPEQGLDWIGWIVPENGNTEYASKFQGKATITADTSSNTAYLQLSSLTSEDTAVYYCTVYGDYWGQGTTLTVSS VL: DIQMTQSPSSLSASLGERVSLNCRASQEISGYLSWLQQKPDGTIKRLIYAASTLDSGVPKRFSGSRSGSDYSLTISSLESEDFAAYYCLQYASYPLTFGAGTKLELK | 0.34
6 | mAb742 (antibody, V domains shown) VH: QGQLQQSGAELVRPGASVTLSCKASGYTFNDYEMHWVKQTPVHGLEWIGAIDPETGGTAYNQKFKGKAILTADKSSSTAYMELRSLTSEDSAVYYCIRWGSTVFPYWGQGTLVTVS VL: DGVLTQTPLSLPVNIGDQASISCKSTKSLLNSDGFTYLDWYLQKPGQSPQLLIYLVSNRFSGVPDRFSGSGSGTDFTLKISRVEAEDLGVYYCFQSNYLPWTFGGGTKLEIK | 0.32
7 | mAb744 (antibody, V domains shown) VH: QVQLQQSGAELVRPGTSVTLSCKASGYTFTDYEMHWMKQTPVHGLEWIGAIDPATGGTAYNQKFKGKAILTADKSSSTAYMDFRSLTSEDSAVYYCIRWGTTVFPYWGQGTLVTVS VL: DVVLTQTPLSLPVNIGDQASISCKSTKSLLNSDGFTYLDWYLQKPGQSPQLLIYLVSNRFSGVPDRFSGSGSGTDFTLKISRVEAEDLGVYYCFQSNYLPWTFGGGTKLEIK | 0.21
